Values joined by “and” are separate entries in the source; they are usually repeats but may differ in a detail not shown here. Equal entries are not always repeated. Values belong to the binder of their own block, whether it stands above or below them.
Assays:
Conditions in all cases: both partners purified
[1] = molecular target: T1, biotinylated integrin β3 transmembrane and cytoplasmic tail polypeptide (β3-TM–CT) in nanodiscs (UniProt O54890 715-787, biotin (biotin-maleimide)); assay: flow cytometry-based reporter-displacement assay (FC-RDA) on beads; biotinylated TM–CT in 10% PIP3/90% DMPC nanodiscs on streptavidin beads; reporter 50 nM 647–KIND2, unlabelled competitor titrated; 20 mM Tris pH 7.5, 200 mM NaCl, room temperature; IC50 of individual experiments; charged lipids contribute to the binding
T1 construct: integrin β3 TM and CT, residues 715-787; embedded in MSP2N2 nanodiscs with 10% PIP2 or PIP3 and 90% DMPC; held on streptavidin beads; also called b3; source: E. coli BL21 (DE3) Rosetta 2, inclusion bodies, purified (IMAC, cation exchange)
T1 sequence (looked up): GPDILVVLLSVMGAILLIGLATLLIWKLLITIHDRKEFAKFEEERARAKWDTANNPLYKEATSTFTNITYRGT

[2] = molecular target: T1, biotinylated integrin β3 transmembrane …; assay: flow cytometry-based reporter-displacement assay (FC-RDA) on beads; biotinylated TM–CT in 10% PIP3/90% DMPC nanodiscs on streptavidin beads; reporter 100 nM 565–THD1, unlabelled competitor titrated; 20 mM Tris pH 7.5, 200 mM NaCl, room temperature; IC50 of individual experiments; charged lipids contribute to the binding
[3] = molecular target: T1, biotinylated integrin β3 transmembrane …; assay: flow cytometry-based reporter-displacement assay (FC-RDA) on beads; biotinylated TM–CT in PIP2-containing nanodiscs on streptavidin beads; reporter 565–THD1-K402E, unlabelled competitor titrated; IC50 of individual experiments
[4] = molecular target: T2, biotinylated integrin β1 transmembrane and cytoplasmic tail polypeptide (β1-TM–CT) in nanodiscs (UniProt P09055 726-798, biotin (biotin-maleimide)); assay: as above
T2 construct: integrin β1 TM and CT, residues 726-798; embedded in MSP2N2 nanodiscs with 10% PIP2 or PIP3 and 90% DMPC, on average one TM–CT per nanodisc; held on streptavidin beads; also called b1; source: E. coli BL21 (DE3) Rosetta 2, inclusion bodies, purified (IMAC, cation exchange)

[5] = molecular target: T2, biotinylated integrin β1 transmembrane …; assay: flow cytometry-based reporter-displacement assay (FC-RDA) on beads; biotinylated TM–CT in 10% PIP2/90% DMPC nanodiscs on streptavidin beads; reporter 50 nM 647–KIND2, unlabelled competitor titrated; 20 mM Tris pH 7.5, 200 mM NaCl, room temperature; IC50 of individual experiments; charged lipids contribute to the binding
[6] = molecular target: T1, biotinylated integrin β3 transmembrane …; assay: flow cytometry-based reporter-displacement assay (FC-RDA) on beads; biotinylated TM–CT in PIP2-containing nanodiscs on streptavidin beads; reporter 647–KIND2-Y13A, unlabelled competitor titrated; IC50 of individual experiments
[7] = molecular target: T2, biotinylated integrin β1 transmembrane …; assay: as above
[8] = molecular target: T1, biotinylated integrin β3 transmembrane …; assay: flow cytometry-based reporter-displacement assay (FC-RDA) on beads; biotinylated TM–CT in PIP3-containing nanodiscs on streptavidin beads; reporter 647–KIND2-Y13A, unlabelled competitor titrated; IC50 of individual experiments
[9] = molecular target: T2, biotinylated integrin β1 transmembrane …; assay: as above
[10] = molecular target: T1, biotinylated integrin β3 transmembrane …; assay: flow cytometry-based reporter-displacement assay (FC-RDA) on beads; biotinylated TM–CT in 10% PIP3/90% DMPC nanodiscs on streptavidin beads; reporter 100 nM 565–THD1, unlabelled competitor titrated; 20 mM Tris pH 7.5, 200 mM NaCl, room temperature; IC50 of individual experiments; charged lipids contribute to the binding; remark: listed apart in the source
[11] = molecular target: T2, biotinylated integrin β1 transmembrane …; assay: as above
[12] = molecular target: T2, biotinylated integrin β1 transmembrane …; assay: flow cytometry-based reporter-displacement assay (FC-RDA) on beads; biotinylated TM–CT in 10% PIP2/90% DMPC nanodiscs on streptavidin beads; reporter 100 nM 565–THD1, unlabelled competitor titrated; 20 mM Tris pH 7.5, 200 mM NaCl, room temperature; IC50 of individual experiments; charged lipids contribute to the binding
[13] = molecular target: T1, biotinylated integrin β3 transmembrane …; assay: flow cytometry-based reporter-displacement assay (FC-RDA) on beads; biotinylated TM–CT in 10% PIP2/90% DMPC nanodiscs on streptavidin beads; reporter 50 nM 647–KIND2, unlabelled competitor titrated; 20 mM Tris pH 7.5, 200 mM NaCl, room temperature; IC50 of individual experiments; charged lipids contribute to the binding
[14] = molecular target: T2, biotinylated integrin β1 transmembrane …; assay: as above; remark: listed apart in the source
[15] = molecular target: T2, biotinylated integrin β1 transmembrane …; assay: flow cytometry-based reporter-displacement assay (FC-RDA) on beads; biotinylated TM–CT in 10% PIP3/90% DMPC nanodiscs on streptavidin beads; reporter 50 nM 647–KIND2, unlabelled competitor titrated; 20 mM Tris pH 7.5, 200 mM NaCl, room temperature; IC50 of individual experiments; charged lipids contribute to the binding

T2 sequence (P09055 726-798): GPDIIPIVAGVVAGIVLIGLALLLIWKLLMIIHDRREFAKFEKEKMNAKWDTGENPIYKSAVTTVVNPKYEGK

- IC50 [1]: 79 nM and 90 nM and 69 nM
- IC50 [2]: 760 nM and 573 nM and 678 nM
- IC50 [3]: 116 nM and 65 nM
- IC50 [4]: 514 nM and 512 nM and 396 nM and 487 nM
- IC50 [5]: 151 nM and 155 nM and 176 nM and 77 nM
B1: kindlin-2 (KIND2) (natural protein, UniProt Q8CIB5 1-680, looked up)
chain: MALDGIRMPDGCYADGTWELSVHVTDLNRDVTLRVTGEVHIGGVMLKLVEKLDVKKDWSDHALWWEKKRTWLLKTHWTLDKCGIQADAKLQFTPQHKLLRLQLPNMKYVKVKVNFSDRVFKAVSDICKTFNIRHPEELSLLKKPRDPTKKKKKKLDDQSEDEALELEGPLIMPGSGSIYSSPGLYSKTMTPTYDAHDGSPLSPTSAWFGDSALSEGNPGILAVSQPVTSPEILAKMFKPQALLDKAKTNQGWLDSSRSLMEQDVKENEALLLRFKYYSFFDLNPKYDAIRINQLYEQAKWALLLEEIECTEEEMMMFAALQYHINKLSIMTSENHLNNSDKEVDEVDAALSDLEITLEGGKTSTILGDITSIPELADYIKVFKPKKLTLKGYKQYWCTFKDTSISCYKSREESSGTPAHQLNLRGCEVTPDVNISGQKFNIKLLIPVAEGMNEIWLRCDNEKQYAHWMAACRLASKGKTMADSSYNLEVQNILSFLKMQHLNPDPQLIPDQITTDVNPECLVSPRYLKKYKSKQITARILEAHQNVAQMSLIEAKMRFIQAWQSLPEFGITHFIARFQGGKREELIGIAYNRLIRMDASTGDAIKTWRFSNMKQWNVNWEIKMVTVEFADEVRLSFICTEVDCKVVHEFIGGYIFLSTRAKDQNESLDEEMFYKLTSGWV
notes: kindlin-2 (KIND2), recombinant; with the F1 loop and the PH domain (unlike ΔKIND2); source: E. coli Rosetta, purified (IMAC, SEC); not shown: His10-SUMO, N-terminal, cleaved

- IC50 [6]: 112 nM and 238 nM and 305 nM
- IC50 [7]: 78 nM and 91 nM and 124 nM
- IC50 [8]: 121 nM and 167 nM and 233 nM
- IC50 [9]: 56 nM and 119 nM and 60 nM
- IC50 [10]: 176 nM and 234 nM and 205 nM and 83 nM
- IC50 [11]: 168 nM and 223 nM and 116 nM
- IC50 [12]: 203 nM and 479 nM and 290 nM
B2: KIND2 Y13A (natural protein, UniProt Q8CIB5 1-680, looked up)
chain: MALDGIRMPDGCAADGTWELSVHVTDLNRDVTLRVTGEVHIGGVMLKLVEKLDVKKDWSDHALWWEKKRTWLLKTHWTLDKCGIQADAKLQFTPQHKLLRLQLPNMKYVKVKVNFSDRVFKAVSDICKTFNIRHPEELSLLKKPRDPTKKKKKKLDDQSEDEALELEGPLIMPGSGSIYSSPGLYSKTMTPTYDAHDGSPLSPTSAWFGDSALSEGNPGILAVSQPVTSPEILAKMFKPQALLDKAKTNQGWLDSSRSLMEQDVKENEALLLRFKYYSFFDLNPKYDAIRINQLYEQAKWALLLEEIECTEEEMMMFAALQYHINKLSIMTSENHLNNSDKEVDEVDAALSDLEITLEGGKTSTILGDITSIPELADYIKVFKPKKLTLKGYKQYWCTFKDTSISCYKSREESSGTPAHQLNLRGCEVTPDVNISGQKFNIKLLIPVAEGMNEIWLRCDNEKQYAHWMAACRLASKGKTMADSSYNLEVQNILSFLKMQHLNPDPQLIPDQITTDVNPECLVSPRYLKKYKSKQITARILEAHQNVAQMSLIEAKMRFIQAWQSLPEFGITHFIARFQGGKREELIGIAYNRLIRMDASTGDAIKTWRFSNMKQWNVNWEIKMVTVEFADEVRLSFICTEVDCKVVHEFIGGYIFLSTRAKDQNESLDEEMFYKLTSGWV
notes: kindlin-2 (KIND2), recombinant, Y13A; source: E. coli Rosetta, purified (IMAC, SEC); not shown: His10-SUMO, N-terminal, cleaved

- IC50 [13]: 186 nM and 206 nM and 276 nM and 136 nM
- IC50 [14]: 271 nM and 366 nM and 201 nM and 258 nM
- IC50 [15]: 332 nM and 291 nM and 217 nM and 447 nM
B3: THD1 K402E (domain or fragment, UniProt P26039 1-405, looked up)
chain: MVALSLKISIGNVVKTMQFEPSTMVYDACRMIRERIPEALAGPPNDFGLFLSDDDPKKGIWLEAGKALDYYMLRNGDTMEYRKKQRPLKIRMLDGTVKTIMVDDSKTVTDMLMTICARIGITNHDEYSLVRELMEEKKDEGTGTLRKDKTLLRDEKKMEKLKQKLHTDDELNWLDHGRTLREQGVEEHETLLLRRKFFYSDQNVDSRDPVQLNLLYVQARDDILNGSHPVSFDKACEFAGFQCQIQFGPHNEQKHKAGFLDLKDFLPKEYVKQKGERKIFQAHKNCGQMSEIEAKVRYVKLARSLKTYGVSFFLVKEKMKGKNKLVPRLLGITKECVMRVDEKTKEVIQEWSLTNIKRWAASPKSFTLDFGDYQDGYYSVQTTEGEQIAQLIAGYIDIILKEKKS
notes: talin-1 (TLN1) head domain, residues 1-405, K402E; source: E. coli (DE3) Rosetta 2, purified (IMAC, SEC); not shown: His10-SUMO, N-terminal, cleaved

From publication PMC10716038, “Talin and kindlin use integrin tail allostery and direct binding to activate integrins” (Nature Structural & Molecular Biology, 2023)
